In patent publication US20150344570A1 (published 2015):

Tests used:
[1] = molecular target: T1, FcγRIIa R (human, UniProt P12318 34-217); assay: SPR; He/Con_2aR divided by He/Con_2b (FcγRIIa R over FcγRIIb)
T1 construct: extracellular domain; also called FcgRIIa R type; 2aR; not shown: His tag at the C terminus
T1 sequence (looked up): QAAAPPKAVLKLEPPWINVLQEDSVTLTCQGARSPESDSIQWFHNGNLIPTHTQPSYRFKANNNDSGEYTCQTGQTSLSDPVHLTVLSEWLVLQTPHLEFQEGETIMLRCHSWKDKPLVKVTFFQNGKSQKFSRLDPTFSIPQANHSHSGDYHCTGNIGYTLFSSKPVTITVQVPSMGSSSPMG

[2] = molecular target: T2, FcγRIIb (human, UniProt P31994 43-217); assay: SPR, relative to GpH7-A5/GpH7-B3/GpL16-k0
T2 construct: extracellular domain; also called FcgRIIb; 2b; not shown: His tag at the C terminus
T2 sequence (looked up): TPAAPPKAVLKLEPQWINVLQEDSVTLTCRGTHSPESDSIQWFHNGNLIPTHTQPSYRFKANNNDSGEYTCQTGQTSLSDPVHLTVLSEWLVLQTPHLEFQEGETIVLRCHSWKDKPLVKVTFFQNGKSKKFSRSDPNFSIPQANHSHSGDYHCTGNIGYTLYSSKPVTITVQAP

[3] = molecular target: T1, FcγRIIa R; assay: SPR, relative to GpH7-A5/GpH7-B3/GpL16-k0

Binder | He_2aR/2b [1] [ratio] | He/Con_2b [2] [control = 100] | He/Con_2aR [3] [control = 100]
GpH7-A5/GpH7-B3 variant P238_09D/GpL16-k0 (antibody, human IgG1, kappa, Heterodimerized anti-glypican-3 IgG1; mutation in the GpH7-B3 chain only; also called He Ab) heavy 1: not shown heavy 2: not shown light: DIVMTQSPLSLPVTPGEPASISCQASESLVHSNRNTYLHWYLQKPGQSPQLLIYKVSNRFSGVPDRFSGSGSGTDFTLKISRVEAEDVGVYYCSQNTHVPPTFGQGTKVEIERTVAAPSVFIFPPSDEQLKSGTASVVCLLNNFYPREAKVQWKVDNALQSGNSQESVTEQDSKDSTYSLSSTLTLSKADYEKHKVYACEVTHQGLSSPVTKSFNRGEC | 0.67 | 221 | 148
GpH7-A5/GpH7-B3 variant P238_10E/GpL16-k0 (antibody, human IgG1, kappa, Heterodimerized anti-glypican-3 IgG1; mutation in the GpH7-B3 chain only; also called He Ab) heavy 1: not shown heavy 2: not shown light: DIVMTQSPLSLPVTPGEPASISCQASESLVHSNRNTYLHWYLQKPGQSPQLLIYKVSNRFSGVPDRFSGSGSGTDFTLKISRVEAEDVGVYYCSQNTHVPPTFGQGTKVEIERTVAAPSVFIFPPSDEQLKSGTASVVCLLNNFYPREAKVQWKVDNALQSGNSQESVTEQDSKDSTYSLSSTLTLSKADYEKHKVYACEVTHQGLSSPVTKSFNRGEC | 0.65 | 232 | 151
GpH7-A5/GpH7-B3 variant P238_15Y/GpL16-k0 (antibody, human IgG1, kappa, Heterodimerized anti-glypican-3 IgG1; mutation in the GpH7-B3 chain only; also called He Ab) heavy 1: not shown heavy 2: not shown light: DIVMTQSPLSLPVTPGEPASISCQASESLVHSNRNTYLHWYLQKPGQSPQLLIYKVSNRFSGVPDRFSGSGSGTDFTLKISRVEAEDVGVYYCSQNTHVPPTFGQGTKVEIERTVAAPSVFIFPPSDEQLKSGTASVVCLLNNFYPREAKVQWKVDNALQSGNSQESVTEQDSKDSTYSLSSTLTLSKADYEKHKVYACEVTHQGLSSPVTKSFNRGEC | 0.72 | 218 | 156
GpH7-A5/GpH7-B3 variant P271_01G/GpL16-k0 (antibody, human IgG1, kappa, Heterodimerized anti-glypican-3 IgG1; mutation in the GpH7-B3 chain only; also called He Ab) heavy 1: not shown heavy 2: not shown light: DIVMTQSPLSLPVTPGEPASISCQASESLVHSNRNTYLHWYLQKPGQSPQLLIYKVSNRFSGVPDRFSGSGSGTDFTLKISRVEAEDVGVYYCSQNTHVPPTFGQGTKVEIERTVAAPSVFIFPPSDEQLKSGTASVVCLLNNFYPREAKVQWKVDNALQSGNSQESVTEQDSKDSTYSLSSTLTLSKADYEKHKVYACEVTHQGLSSPVTKSFNRGEC | 0.75 | 193 | 144
GpH7-A5/GpH7-B3 variant S239_09D/GpL16-k0 (antibody, human IgG1, kappa, Heterodimerized anti-glypican-3 IgG1; mutation in the GpH7-B3 chain only; also called He Ab) heavy 1: not shown heavy 2: not shown light: DIVMTQSPLSLPVTPGEPASISCQASESLVHSNRNTYLHWYLQKPGQSPQLLIYKVSNRFSGVPDRFSGSGSGTDFTLKISRVEAEDVGVYYCSQNTHVPPTFGQGTKVEIERTVAAPSVFIFPPSDEQLKSGTASVVCLLNNFYPREAKVQWKVDNALQSGNSQESVTEQDSKDSTYSLSSTLTLSKADYEKHKVYACEVTHQGLSSPVTKSFNRGEC | 0.66 | 206 | 137
GpH7-A5/GpH7-B3 variant S239_10E/GpL16-k0 (antibody, human IgG1, kappa, Heterodimerized anti-glypican-3 IgG1; mutation in the GpH7-B3 chain only; also called He Ab) heavy 1: not shown heavy 2: not shown light: DIVMTQSPLSLPVTPGEPASISCQASESLVHSNRNTYLHWYLQKPGQSPQLLIYKVSNRFSGVPDRFSGSGSGTDFTLKISRVEAEDVGVYYCSQNTHVPPTFGQGTKVEIERTVAAPSVFIFPPSDEQLKSGTASVVCLLNNFYPREAKVQWKVDNALQSGNSQESVTEQDSKDSTYSLSSTLTLSKADYEKHKVYACEVTHQGLSSPVTKSFNRGEC | 0.75 | 181 | 135
GpH7-A5/GpH7-B3 variant S267_02A/GpL16-k0 (antibody, human IgG1, kappa, Heterodimerized anti-glypican-3 IgG1; mutation in the GpH7-B3 chain only; also called He Ab) heavy 1: not shown heavy 2: not shown light: DIVMTQSPLSLPVTPGEPASISCQASESLVHSNRNTYLHWYLQKPGQSPQLLIYKVSNRFSGVPDRFSGSGSGTDFTLKISRVEAEDVGVYYCSQNTHVPPTFGQGTKVEIERTVAAPSVFIFPPSDEQLKSGTASVVCLLNNFYPREAKVQWKVDNALQSGNSQESVTEQDSKDSTYSLSSTLTLSKADYEKHKVYACEVTHQGLSSPVTKSFNRGEC | 0.64 | 243 | 155
GpH7-A5/GpH7-B3 variant S267_03V/GpL16-k0 (antibody, human IgG1, kappa, Heterodimerized anti-glypican-3 IgG1; mutation in the GpH7-B3 chain only; also called He Ab) heavy 1: not shown heavy 2: not shown light: DIVMTQSPLSLPVTPGEPASISCQASESLVHSNRNTYLHWYLQKPGQSPQLLIYKVSNRFSGVPDRFSGSGSGTDFTLKISRVEAEDVGVYYCSQNTHVPPTFGQGTKVEIERTVAAPSVFIFPPSDEQLKSGTASVVCLLNNFYPREAKVQWKVDNALQSGNSQESVTEQDSKDSTYSLSSTLTLSKADYEKHKVYACEVTHQGLSSPVTKSFNRGEC | 0.61 | 192 | 116
GpH7-A5/GpH7-B3 variant S267_04F/GpL16-k0 (antibody, human IgG1, kappa, Heterodimerized anti-glypican-3 IgG1; mutation in the GpH7-B3 chain only; also called He Ab) heavy 1: not shown heavy 2: not shown light: DIVMTQSPLSLPVTPGEPASISCQASESLVHSNRNTYLHWYLQKPGQSPQLLIYKVSNRFSGVPDRFSGSGSGTDFTLKISRVEAEDVGVYYCSQNTHVPPTFGQGTKVEIERTVAAPSVFIFPPSDEQLKSGTASVVCLLNNFYPREAKVQWKVDNALQSGNSQESVTEQDSKDSTYSLSSTLTLSKADYEKHKVYACEVTHQGLSSPVTKSFNRGEC | 0.79 | 48 | 37.8
GpH7-A5/GpH7-B3 variant S267_06M/GpL16-k0 (antibody, human IgG1, kappa, Heterodimerized anti-glypican-3 IgG1; mutation in the GpH7-B3 chain only; also called He Ab) heavy 1: not shown heavy 2: not shown light: DIVMTQSPLSLPVTPGEPASISCQASESLVHSNRNTYLHWYLQKPGQSPQLLIYKVSNRFSGVPDRFSGSGSGTDFTLKISRVEAEDVGVYYCSQNTHVPPTFGQGTKVEIERTVAAPSVFIFPPSDEQLKSGTASVVCLLNNFYPREAKVQWKVDNALQSGNSQESVTEQDSKDSTYSLSSTLTLSKADYEKHKVYACEVTHQGLSSPVTKSFNRGEC | 0.58 | 210 | 122
GpH7-A5/GpH7-B3 variant S267_07I/GpL16-k0 (antibody, human IgG1, kappa, Heterodimerized anti-glypican-3 IgG1; mutation in the GpH7-B3 chain only; also called He Ab) heavy 1: not shown heavy 2: not shown light: DIVMTQSPLSLPVTPGEPASISCQASESLVHSNRNTYLHWYLQKPGQSPQLLIYKVSNRFSGVPDRFSGSGSGTDFTLKISRVEAEDVGVYYCSQNTHVPPTFGQGTKVEIERTVAAPSVFIFPPSDEQLKSGTASVVCLLNNFYPREAKVQWKVDNALQSGNSQESVTEQDSKDSTYSLSSTLTLSKADYEKHKVYACEVTHQGLSSPVTKSFNRGEC | 0.58 | 192 | 111
GpH7-A5/GpH7-B3 variant S267_09D/GpL16-k0 (antibody, human IgG1, kappa, Heterodimerized anti-glypican-3 IgG1; mutation in the GpH7-B3 chain only; also called He Ab) heavy 1: not shown heavy 2: not shown light: DIVMTQSPLSLPVTPGEPASISCQASESLVHSNRNTYLHWYLQKPGQSPQLLIYKVSNRFSGVPDRFSGSGSGTDFTLKISRVEAEDVGVYYCSQNTHVPPTFGQGTKVEIERTVAAPSVFIFPPSDEQLKSGTASVVCLLNNFYPREAKVQWKVDNALQSGNSQESVTEQDSKDSTYSLSSTLTLSKADYEKHKVYACEVTHQGLSSPVTKSFNRGEC | 0.56 | 310 | 173
GpH7-A5/GpH7-B3 variant S267_10E/GpL16-k0 (antibody, human IgG1, kappa, Heterodimerized anti-glypican-3 IgG1; mutation in the GpH7-B3 chain only; also called He Ab) heavy 1: not shown heavy 2: not shown light: DIVMTQSPLSLPVTPGEPASISCQASESLVHSNRNTYLHWYLQKPGQSPQLLIYKVSNRFSGVPDRFSGSGSGTDFTLKISRVEAEDVGVYYCSQNTHVPPTFGQGTKVEIERTVAAPSVFIFPPSDEQLKSGTASVVCLLNNFYPREAKVQWKVDNALQSGNSQESVTEQDSKDSTYSLSSTLTLSKADYEKHKVYACEVTHQGLSSPVTKSFNRGEC | 0.46 | 379 | 175
GpH7-A5/GpH7-B3 variant S267_11K/GpL16-k0 (antibody, human IgG1, kappa, Heterodimerized anti-glypican-3 IgG1; mutation in the GpH7-B3 chain only; also called He Ab) heavy 1: not shown heavy 2: not shown light: DIVMTQSPLSLPVTPGEPASISCQASESLVHSNRNTYLHWYLQKPGQSPQLLIYKVSNRFSGVPDRFSGSGSGTDFTLKISRVEAEDVGVYYCSQNTHVPPTFGQGTKVEIERTVAAPSVFIFPPSDEQLKSGTASVVCLLNNFYPREAKVQWKVDNALQSGNSQESVTEQDSKDSTYSLSSTLTLSKADYEKHKVYACEVTHQGLSSPVTKSFNRGEC | 0.3 | 12.2 | 3.6
GpH7-A5/GpH7-B3 variant S267_12R/GpL16-k0 (antibody, human IgG1, kappa, Heterodimerized anti-glypican-3 IgG1; mutation in the GpH7-B3 chain only; also called He Ab) heavy 1: not shown heavy 2: not shown light: DIVMTQSPLSLPVTPGEPASISCQASESLVHSNRNTYLHWYLQKPGQSPQLLIYKVSNRFSGVPDRFSGSGSGTDFTLKISRVEAEDVGVYYCSQNTHVPPTFGQGTKVEIERTVAAPSVFIFPPSDEQLKSGTASVVCLLNNFYPREAKVQWKVDNALQSGNSQESVTEQDSKDSTYSLSSTLTLSKADYEKHKVYACEVTHQGLSSPVTKSFNRGEC | 0.32 | 11.3 | 3.6
GpH7-A5/GpH7-B3 variant S267_14T/GpL16-k0 (antibody, human IgG1, kappa, Heterodimerized anti-glypican-3 IgG1; mutation in the GpH7-B3 chain only; also called He Ab) heavy 1: not shown heavy 2: not shown light: DIVMTQSPLSLPVTPGEPASISCQASESLVHSNRNTYLHWYLQKPGQSPQLLIYKVSNRFSGVPDRFSGSGSGTDFTLKISRVEAEDVGVYYCSQNTHVPPTFGQGTKVEIERTVAAPSVFIFPPSDEQLKSGTASVVCLLNNFYPREAKVQWKVDNALQSGNSQESVTEQDSKDSTYSLSSTLTLSKADYEKHKVYACEVTHQGLSSPVTKSFNRGEC | 0.78 | 104 | 81.9
GpH7-A5/GpH7-B3 variant S267_16H/GpL16-k0 (antibody, human IgG1, kappa, Heterodimerized anti-glypican-3 IgG1; mutation in the GpH7-B3 chain only; also called He Ab) heavy 1: not shown heavy 2: not shown light: DIVMTQSPLSLPVTPGEPASISCQASESLVHSNRNTYLHWYLQKPGQSPQLLIYKVSNRFSGVPDRFSGSGSGTDFTLKISRVEAEDVGVYYCSQNTHVPPTFGQGTKVEIERTVAAPSVFIFPPSDEQLKSGTASVVCLLNNFYPREAKVQWKVDNALQSGNSQESVTEQDSKDSTYSLSSTLTLSKADYEKHKVYACEVTHQGLSSPVTKSFNRGEC | 0.77 | 65.9 | 50.6
GpH7-A5/GpH7-B3 variant S267_19Q/GpL16-k0 (antibody, human IgG1, kappa, Heterodimerized anti-glypican-3 IgG1; mutation in the GpH7-B3 chain only; also called He Ab) heavy 1: not shown heavy 2: not shown light: DIVMTQSPLSLPVTPGEPASISCQASESLVHSNRNTYLHWYLQKPGQSPQLLIYKVSNRFSGVPDRFSGSGSGTDFTLKISRVEAEDVGVYYCSQNTHVPPTFGQGTKVEIERTVAAPSVFIFPPSDEQLKSGTASVVCLLNNFYPREAKVQWKVDNALQSGNSQESVTEQDSKDSTYSLSSTLTLSKADYEKHKVYACEVTHQGLSSPVTKSFNRGEC | 0.62 | 218 | 135
